Several values for one entry are separate records, joined by “and”; a condition that tells them apart may be missing. Identical values can stand only once.
Key:
[1] = molecular target: T1, human BCAM antigen protein expressed on the cell surface (human, UniProt P50895 32-628); test: flow cytometry on HEK293FT cells transfected with human BCAM
T1 construct: whole, on cells; also called human BCAM expressed on the cell surface; BCAM on HEK293FT cells transfected with the 293FT/BCAM plasmid
T1 sequence (looked up): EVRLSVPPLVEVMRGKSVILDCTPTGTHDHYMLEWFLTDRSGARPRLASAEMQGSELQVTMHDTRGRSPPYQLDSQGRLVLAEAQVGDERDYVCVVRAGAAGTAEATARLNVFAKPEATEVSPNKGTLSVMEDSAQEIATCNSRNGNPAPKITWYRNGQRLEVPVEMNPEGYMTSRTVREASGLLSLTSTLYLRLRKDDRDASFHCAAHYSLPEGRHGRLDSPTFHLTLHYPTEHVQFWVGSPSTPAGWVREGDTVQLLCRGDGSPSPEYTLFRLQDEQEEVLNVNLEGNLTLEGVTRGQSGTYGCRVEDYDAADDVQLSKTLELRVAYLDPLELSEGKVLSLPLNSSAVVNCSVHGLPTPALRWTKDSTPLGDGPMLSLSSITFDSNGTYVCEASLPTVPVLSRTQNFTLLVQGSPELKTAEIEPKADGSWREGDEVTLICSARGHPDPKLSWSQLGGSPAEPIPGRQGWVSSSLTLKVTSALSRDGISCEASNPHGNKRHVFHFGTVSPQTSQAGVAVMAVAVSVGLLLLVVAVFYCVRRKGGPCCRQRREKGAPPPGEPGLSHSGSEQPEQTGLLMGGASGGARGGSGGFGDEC

[2] = molecular target: T2, human BCAM protein (10238-H08H, SinoBiological, China) (human, UniProt P50895 32-547); test: ELISA, plate coated with human BCAM, anti-human IgG Fc-HRP detection
T2 construct: Bought recombinant protein; also called antigen protein; Lu
T2 sequence (looked up): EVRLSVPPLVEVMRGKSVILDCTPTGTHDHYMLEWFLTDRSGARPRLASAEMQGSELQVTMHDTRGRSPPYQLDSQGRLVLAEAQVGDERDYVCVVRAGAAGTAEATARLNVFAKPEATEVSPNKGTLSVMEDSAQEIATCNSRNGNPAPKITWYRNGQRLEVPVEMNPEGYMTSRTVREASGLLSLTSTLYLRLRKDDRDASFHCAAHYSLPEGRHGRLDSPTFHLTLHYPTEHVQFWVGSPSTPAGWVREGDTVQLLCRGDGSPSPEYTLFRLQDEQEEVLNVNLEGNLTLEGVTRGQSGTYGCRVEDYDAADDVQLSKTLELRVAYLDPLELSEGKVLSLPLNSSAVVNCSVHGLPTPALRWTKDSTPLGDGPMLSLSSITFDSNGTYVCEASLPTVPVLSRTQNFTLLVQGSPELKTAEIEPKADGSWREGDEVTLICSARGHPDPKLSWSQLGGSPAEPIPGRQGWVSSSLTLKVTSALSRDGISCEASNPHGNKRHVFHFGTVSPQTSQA

[3] = molecular target: T2, human BCAM protein (10238-H08H, …); test: BLI (Octet R8), human BCAM amine-coupled on AR2G biosensors, antibody in solution, 1:1 model
DU145 = test: In vitro anticancer effect, CellTiter-Glo cell viability; type: cell-based, human; conditions: DU145, 72 hours
Method: (§1) An in vitro experiment was conducted to confirm the anticancer effect of the Ab-II antibody-drug conjugate produced in Example 4 on human cell lines that express high levels of BCAM.
(§2) 5 x 10^3 cells of SK-BR-3 (human breast cancer cell line, KCLB), OVCAR3 (human ovarian cancer cell line, KCLB), and DU145 (human prostate cancer cell line, KCLB) were seeded into a 96-well plate (3595, Corning, USA). The next day, after confirming cell attachment to the plate, the existing cell culture was removed. Ab-II, produced in Example 4, was serially diluted in cell culture medium from 1 µM in a 5-fold dilution series across 8 points (down to 12.8 pM), and 200 µL was added to each well. On the day of drug treatment, the luminescence of the negative control (0% control, untreated with the drug) was measured. The culture medium was removed, 100 µL of CellTiter-Glo® (Promega, USA) solution was added to each well, and after reacting for 10 minutes at room temperature, the luminescence was measured with a microplate reader (Synergy H1, Biotek, USA). The experimental group treated with the drug and the positive control group (100% control, untreated with the drug) were reacted for 72 hours in a 37°C CO2 incubator. Afterward, the culture medium was removed, 100 µL of CellTiter-Glo® solution was added to each well, and after reacting for 10 minutes at room temperature, the luminescence was measured with the microplate reader. The % cell viability for Ab-II was calculated by substituting into the formula: [(Ab-II treated group) - (0% control group)] / [(100% control group) - (0% control group)]. The GI50 (half-maximal growth inhibition concentration) value of Ab-II for each cell line was calculated using GraphPad Prism (GraphPad software Inc., USA) based on the % cell viability.

OVCAR3 = test: as above; type: cell-based, human; conditions: OVCAR3, 72 hours
Method: as §1, §2

SK-BR-3 = test: as above; type: cell-based, human; conditions: SK-BR-3, 72 hours
Method: as §1, §2

[4] = molecular target: T2, human BCAM protein (10238-H08H, …); test: ELISA, plate coated with 7 nM human BCAM, anti-human IgG Fc-HRP detection

B1: Ab-I antibody (anti-BCAM human IgG4 antibody) (antibody, V domains shown)
VH: EVQLVESGGGLVKPGGSLRLSCAASGFTFSSYSMNWVRQAPGKGLEWVSSISSSSSYIYYADSVKGRFTISRDNAKNSLYLQMNSLRAEDTAVYYCARIIGGWLGDYWGQGTLVTVSS
VL: NIQMTQSPSSVSASVGDRVTITCRASQGISSWLAWYQQKPGKAPKLLIYAASSLRSGVPSRFSGSGSGTDFTLTISSLQPEDFATYYCQQANSFPPPTFGGGTKVEIK
notes: From a human scFv phage library, expressed in ExpiCHO-S
[1]
  EC50: 0.594 nM and 0.086 µg/mL
[2]
  EC50: 0.124 nM
[3]
  Kd: 0.991 nM
  koff: 0.00216 s⁻¹
  kon: 2.18e+06 M⁻¹ s⁻¹

B2: Ab-II (conjugate)
VH: B1 VH
VL: B1 VL
DU145
  GI50: 17 nM
OVCAR3
  GI50: 0.35 nM
SK-BR-3
  GI50: 0.21 nM

B3: Ab-II antibody-drug conjugate (antibody, DAR 5.3, V domains shown)
VH: B1 VH
VL: B1 VL
modifications: Compound 1 conjugated through its maleimide group to antibody cysteine side chains after partial reduction of the disulfide bonds; positions not given; DAR 5.3
notes: Calculated DAR 5.3; also called anti-BCAM antibody-drug conjugate Ab-II
[4]
  EC50: 0.269 nM
